Measurements published in article doi:10.1101/838888.

Target: superfolder GFP with strained-cyclooctyne pyrrolysine at residue 204 (sfGFP^204SCO) (Aequorea victoria) [GFP: P42212]
Experiment: FRET or BRET

Venus with p-azido-L-phenylalanine at residue 204 (Venus^204azF) (from UniProt P42212 2-238)
FRET efficiency: 86.8%
